For assay [1], the target named is OX40 on a functional cell line overexpressing OX40 (UniProt P43489). Briefly: cell-based or functional assay.
The target of assay [2] is T1, Recombinant human OX40-His protein (human, UniProt P43489 29-214, limits assumed).
T1 construct: Recombinant antigen protein; also called recombinant human OX-40 protein; human OX-40 protein; not shown: His tag
T1 sequence (looked up): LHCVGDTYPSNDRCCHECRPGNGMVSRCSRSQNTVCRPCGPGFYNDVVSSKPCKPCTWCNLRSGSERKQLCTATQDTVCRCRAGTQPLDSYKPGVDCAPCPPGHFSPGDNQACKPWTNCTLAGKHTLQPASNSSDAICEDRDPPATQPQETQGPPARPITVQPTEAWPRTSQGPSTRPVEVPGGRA
Put plainly: kinetic ranking (RU, 1:1 binding model), antibody product as ligand, OX40-His as analyte.

The target of assay [3] is T2, OX40 on a functional cell line overexpressing OX40 (UniProt P43489 29-277, limits assumed).
T2 sequence (looked up): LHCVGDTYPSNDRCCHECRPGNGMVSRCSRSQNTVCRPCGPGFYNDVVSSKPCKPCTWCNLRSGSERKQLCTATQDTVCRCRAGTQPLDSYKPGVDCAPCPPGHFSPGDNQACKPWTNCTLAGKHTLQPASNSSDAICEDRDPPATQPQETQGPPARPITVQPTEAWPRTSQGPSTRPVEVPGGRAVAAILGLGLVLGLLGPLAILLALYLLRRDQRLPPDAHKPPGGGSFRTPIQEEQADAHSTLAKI
Put plainly: cell-based or functional assay.

The target of assay [4] is T3, Recombinant monkey OX-40 protein (monkey).
T3 chain: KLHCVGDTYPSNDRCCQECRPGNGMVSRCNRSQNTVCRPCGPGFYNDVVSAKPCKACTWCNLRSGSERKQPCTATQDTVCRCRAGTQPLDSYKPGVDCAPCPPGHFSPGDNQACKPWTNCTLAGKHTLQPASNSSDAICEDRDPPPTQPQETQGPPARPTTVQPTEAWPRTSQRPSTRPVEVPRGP
Put plainly: ELISA, plate coated with recombinant monkey OX-40 protein, antibody titrated. For orientation: ELISA stands for enzyme-linked immunosorbent assay.

Assay [5] concerns the target T1, Recombinant human OX40-His protein. Briefly: ELISA, plate coated with recombinant human OX-40 protein, antibody titrated. As to the method: Recombinant human OX-40 protein and recombinant monkey OX-40 protein were respectively used to detect the cross-recognition ability of humanized monoclonal antibodies for human/monkey OX-40 protein.
The ELISA plate (Nunc) was coated with 100 μl/well of […] recombinant OX40-His protein in PBS at 4° C. overnight. The plate was washed with PBS-T (0.05% Tween) and blocked with 200 μl/well of PBST containing 1% BSA at 37° C. for 0.5 hr. Then the blocking buffer was discarded, 100 μl of 1000 ng/ml purified antibody was added to the first well, 3-fold serial dilutions were made, and a total of 11 test concentration gradients were given. Then the system was incubated for 1 hr at room temperature. The plate was washed three times with PBST and incubated with 100 μl/well of horseradish peroxidase-conjugated goat anti-human Fab fragment-IgG (Fab-specific) (GenScript) at 37° C. for 0.5 hr. The plate was washed 5 times with PBST, and then a TMB developing solution (GenScript) was added and incubated at room temperature for 15 min in the dark. The reaction was terminated by adding 50 μl of 1 M HCl stop solution (Sigma). The plate was read at 450 nm on a microplate reader.

The target is the same in assay [6]. Briefly: SPR (Biacore 8K), OX40-HIS coupled to chip, antibody as analyte, 1:1 binding model. As to the method:
The chip surface was equilibrated with HBS-EP buffer at a flow rate of 10 μl/min for 5 min, and then a 1:1 mixture of “NHS+EDC” was injected at a flow rate of 10 μl/min for 100 sec to activate the chip. The antigen protein (OX40-HIS) diluted in 10 mM sodium acetate buffer was injected for about 180 sec at a flow rate of 10 μl/min for coupling, and finally ethanolamine was injected for 200 sec at a flow rate of 10 μl/min to block the surface.
Three pre-cycles were performed with the HBS-EP buffer as a sample to balance the chip to stabilize the baseline. A low concentration of antibody was injected at a flow rate of 30 μl/min for 200 sec, to allow the antigen to bind to the antibody, and then the buffer was injected at a flow rate of 30 μl/min for 400 sec for dissociation. 10 mM Gly-HCl pH2.0 was injected three times each for 30 sec at a flow rate of 30 μl/min for regeneration, to complete one cycle.
The antibody concentration was changed to carry out the cycle for measurement at a next gradient concentration until all gradient concentrations (2.5 nM, 5 nM, 10 nM, 20 nM, 40 nM, and […]) and the replicate (such as 20 nM) were tested. The experimental data was double subtracted (minus the background values of the control channel and zero concentration), and fitted to the “1:1 binding” model in the Biacore 8K evaluation software. Biacore 8K was used to determine the affinity of the antibody to the OX40-HIS recombinant protein.
(In general: In SPR one partner is held on a chip, and binding of the other changes the refractive index at the surface.)

The values that follow come from patent US20220119540A1 (NANJING GENSCRIPT BIOTECH, published 2022).

Take “OX40 ligand (from UniProt P23510 51-183)”: in assay [1], the IL-8 secretion by OX40 overexpressing functional cell line, EC50 is 2.54 nM; the IL-8 secretion by OX40 overexpressing functional cell line, best-fit value Bottom came to 4130; the IL-8 secretion by OX40 overexpressing functional cell line, best-fit value LogEC50 was 0.404; the IL-8 secretion by OX40 overexpressing functional cell line, best-fit value Top was 19900.

B1: Chimeric antibody, as ranked with the prokaryotically expressed antibody products (back-mutation screening) (Fab, V domains shown)
VH: QIQLVQSGPELKKPGETVKISCKASGYTFTDYSMHWVKQAPGKGLKWMGWISTETGEPTYADDFKGRFAFSLETSASTAYLQIKNLKNEDTASYFCARVRPWYLAVWGAGTTVTVSS
VL: DIQMTQTTSSLSASLGDRVTISCRASQDISNYLNWYQQKPDGTVKLLIYYTSRLYSGVPSRFSGSGSGADYSLTVSNLEQEDIATYFCQQANTLPLTFGAGTKLELK
A word on the Kd: it is a measure of binding affinity in units of concentration. As a reminder, the koff is the first-order rate constant of dissociation. A word on the kon: it is the second-order rate constant of association. B1: in assay [2], the equilibrium dissociation constant (Kd) was determined as 11.2 nM, the koff came out at 0.00487 s⁻¹ and the kon is 434000 M⁻¹ s⁻¹.

B2: AH02919 humanized anti-human OX40 monoclonal antibody (recombinant human IgG1/kappa) (antibody, V domains shown)
VH: QVQLVQSGAEVKKPGASVKVSCKASGYTFTDYSMHWVKQAPGQGLEWMGWISTETGEPTYADDFKGRVTITRDTSASTAYLEISSLRSEDTAVYFCARVRPWYLAVWGQGTLVTVSS
VL: DIQMTQSPSSLSASVGDRVTITCRASQDISNYLNWYQQKPGKAVKLLIYYTSRLYSGVPSRFSGSGSGTDYTLTISSLQPEDIATYYCQQANTLPLTFGGGTKLEIK
Broadly, the EC50 is the concentration that produces a half-maximal response. With B2, in assay [3], the “IL-8 secretion by OX40 overexpressing functional cell line, EC50” value was determined as 1.03 nM; the “IL-8 secretion by OX40 overexpressing functional cell line, best-fit value Bottom” value (“IL-8 secretion … best-fit value Bottom” below) stood at 3060; the “IL-8 secretion by OX40 overexpressing functional cell line, best-fit value LogEC50” value (“IL-8 secretion … best-fit value LogEC50” below) came out at 0.0123; the “IL-8 secretion by OX40 overexpressing functional cell line, best-fit value Top” value (“IL-8 secretion … best-fit value Top” for short) is 19000. The EC50 in assay [4] worked out at 0.0391 mg/L. The EC50 in assay [5] was 0.0143 mg/L. In assay [6], the Kd was 2.09 nM, the koff is 0.000776 s⁻¹ and the kon worked out at 372000 M⁻¹ s⁻¹.

B3: AH02921 humanized anti-human OX40 monoclonal antibody (recombinant human IgG1/kappa) (antibody, V domains shown)
VH: QVQLVQSGPEVKKPGASVKVSCKASGYTFTDYSMHWVRQAPGQGLEWMGWISTETGEPTYADDFKGRFTITLDTSASTAYLEISSLRSEDTAVYFCARVRPWYLTVWGQGTLVTVSS
VL: DIQMTQSPSSLSASVGDRVTITCRASQDISNYLNWYQQKPGKAPKLLIYYTSRLYSGVPSRFSGSGSGTDYTLTISSLQPEDIATYFCQQANTLPLTFGGGTKLEIK
Take B3: in assay [3], the “IL-8 secretion by OX40 overexpressing functional cell line, EC50” value came to 2.14 nM; the “IL-8 secretion … best-fit value Bottom” value is 4420; the “IL-8 secretion … best-fit value LogEC50” value was found to be 0.329; the “IL-8 secretion … best-fit value Top” value came to 19500. Moreover, in assay [4], the EC50 stood at 0.0376 mg/L. Further, the EC50 in assay [5] was found to be 0.0161 mg/L. Moreover, in assay [6], the Kd came to 1.34 nM, the koff came to 0.000439 s⁻¹ and the on-rate constant (kon) came out at 327000 M⁻¹ s⁻¹.

B4: AH02923 humanized anti-human OX40 monoclonal antibody (recombinant human IgG1/kappa) (antibody, V domains shown)
VH: QVQLVQSGAEVKKPGASVKVSCKASGYTFTDYSMHWVRQAPGQGLEWMGWISTETGEPTYADDFKGRFTFTLDTSASTAYLELSSLRSEDTAVYYCARVRPWYLAVWGQGTLVTVSS
VL: DIQMTQSPSSLSASVGDRVTITCRASQDISNYLNWYQQKPGKAVKLLIYYTSRLYSGVPSRFSGSGSGTDYTFTISSLQPEDIATYYCQQANTLPLTFGGGTKLEIK
Turning to B4, in assay [3], the “IL-8 secretion by OX40 overexpressing functional cell line, EC50” value was determined as 1.55 nM; the “IL-8 secretion … best-fit value Bottom” value came out at 3350; the “IL-8 secretion … best-fit value LogEC50” value was 0.191; the “IL-8 secretion … best-fit value Top” value worked out at 21000. In assay [4], the EC50 is 0.0303 mg/L. Further, in assay [5], the EC50 was 0.0107 mg/L. In addition, in assay [6], the Kd came to 2.15 nM, the koff is 0.000616 s⁻¹ and the kon is 287000 M⁻¹ s⁻¹.
